Among the data in the supplement of paper PMC10567573 are protein stability index values, retold here.

± gives the standard deviation.

This series is described as follows: protein stability index of a GFP-peptide fusion (GPS, HEK-293T) (PSI 1-6); higher = more stable.
The mark [1] stands for this setting: treatment: DMSO, c terminus: a fixed tail appended.
Where [2] appears, read: treatment: MLN4924 1 uM, 8 h, c terminus: a fixed tail appended.
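Further: 24-mer peptide tiles fused after GFP, lentivirally expressed, FACS-sorted into six equal bins by GFP/DsRed ratio, decoded by Illumina sequencing, PSI is the read-weighted mean bin number.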

Take LGKGAFSVVRRCVKVLAGQEYAAK [CAMK2A]: the protein stability index came to 2.61 ± 0.4 under setting [1] and 2.38 ± 0.61 under setting [2].
In turn, LGKLEATIKSLSAELLKANEIIKK [SASS6] showed a protein stability index under setting [1] of 2.44 ± 0.34 and a protein stability index under setting [2] of 2.68 ± 0.16.
LGKPDQKDLNENLAATQGLAHMIA [DLC1]: the protein stability index came out at 3.79 ± 0.12 under setting [1] and 3.84 ± 0.23 under setting [2].
On the same counts, the results for LHPRPDWEHSAPQRLPRSAPPGSL [PCDHGC5] are 4.78 ± 0.19 and 4.75 ± 0.17.
On the same counts, the results for LHSEFDEQHGKKVPTVSRPYSFIE [SEC22B] are 4.04 ± 0.13 and 4.14 ± 0.24.
LHVSLGQKLVAAYVLGLLTMVFLR [MOSPD3]: the protein stability index is, setting by setting: under setting [1], 3.17 ± 0.42; under setting [2], 2.89 ± 0.28.
On the same counts, the results for LIFFLFIGVILFSSAVYFAEADEP [KCNA4] are 2.19 ± 0.086 and 2.38 ± 0.29.
Taken in the same sequence, the figures for LIVPFGLLYSEVTASSLVKINLQG [ADD1] were 3.03 ± 0.47 and 2.88 ± 0.36.
On the same counts, the results for LKDEEAKVLQLTVRCEALTGELET [CCDC89] are 3.86 ± 0.15 and 3.71 ± 0.25.
In the case of LKKEHPGARDGIRYLEAEFKKGNR [SMG5], the protein stability index reads like this: under setting [1], 4.35 ± 0.6; under setting [2], 4.29 ± 0.24.
Taken in the same sequence, the figures for LKNIELFDKLALRFHGRLLFLKDV [KCTD13] were 2.66 ± 0.77 and 2.11 ± 0.15.
Taken in the same sequence, the figures for LKPAMTQAQDEVEQERRLSEARLS [FCHSD1] were 5.25 ± 0.18 and 5.19 ± 0.25.
On to LKRKNKQAFLDELESSDLPVALLL [MNAT1], for which the protein stability index came out at 2.2 ± 0.42 under setting [1] and 2 ± 0.3 under setting [2].
Taken in the same sequence, the figures for LKVGGILVMPIEDQLTQIMRTGQN [PCMTD1] were 2.66 ± 0.12 and 2.24 ± 0.22.
Consider LLARGTMQPFNYVTLQCLAARALD [FEM1A], for which the protein stability index was 2.44 ± 0.16 under setting [1] and 2.22 ± 0.29 under setting [2].
Taken in the same sequence, the figures for LLDATVAGGQTRLQASDRYRDLAG [FCHSD1] were 3.99 ± 0.14 and 3.86 ± 0.12.
Taken in the same sequence, the figures for LLEESDGEGEPGQGEGPEAGDAEV [NOP53] were 5.62 ± 0.22 and 5.61 ± 0.14.
With LLETANQTLQAMDSEDFPQAAKQI [FSD1], the protein stability index came out at 4.92 ± 0.26 under setting [1] and 4.79 ± 0.17 under setting [2].
On the same counts, the results for LLLLLLTFFLRTDAETPPRFTRTP [PTPRD] are 2.32 ± 0.43 and 2.36 ± 0.49.
As to LLPTKSLVALKCTCCYFKFIIEYY [FBXO34], the protein stability index under setting [1] stood at 2.8 ± 0.59 and the protein stability index under setting [2] came out at 2.83 ± 0.88.
Taken in the same sequence, the figures for LLQRELAQEDSLNKLALQYGCKVA [LYSMD4] were 2.21 ± 0.34 and 2.52 ± 0.57.
On to LLRDRTGQQSDTAQLELYQLQVES [SCARA5], for which the protein stability index under setting [1] worked out at 4.42 ± 0.37 and the protein stability index under setting [2] was 4.56 ± 0.13.
Taken in the same sequence, the figures for LMKESLQTGDLLSTFHTISPSFQL [PLAGL1] were 2.24 ± 0.13 and 2.17 ± 0.16.
On the same counts, the results for LMKGGADLFVENMPGFPDNIRPSS [APMAP] are 3.66 ± 0.1 and 3.77 ± 0.33.
On the same counts, the results for LNPHVHLVGDDAACIAYIRLTQYM [CAMK2D] are 2.32 ± 0.38 and 2.29 ± 0.66.
Regarding LNVFQTVSRMRTQRAFSIQTPEQY [PTPN9], the protein stability index is 2.38 ± 0.33 under setting [1] and 2.54 ± 0.31 under setting [2].
Taken in the same sequence, the figures for LPLSPGVLSSTPDHSFSLELGSEV [ATF4] were 3.72 ± 0.21 and 3.95 ± 0.5.
LPPCAVRNLQDLARIYIRRTLRNF [PCMTD1]: the protein stability index stood at 2.06 ± 0.29 under setting [1] and 2.04 ± 0.26 under setting [2].
On the same counts, the results for LPSLGCRTSCSSRPCVPPSCHGYT [KRT34] are 2.32 ± 0.26 and 2.2 ± 0.11.
Taken in the same sequence, the figures for LQDVIMQVADVPEKPRVPAFACQV [ZNF511] were 2.37 ± 0.28 and 2.69 ± 0.21.
Taken in the same sequence, the figures for LRDGGGLTPLELLLRQLGRDAGAT [ANKRD9] were 2.79 ± 0.34 and 2.58 ± 0.27.
On to LRGLPGERGTPGLPGPKGDDGKLG [SCARA5], for which the protein stability index runs as follows: under setting [1], 4.96 ± 0.33; under setting [2], 4.96 ± 0.19.
For the sequence LRKHRELCDVVLVVGAKKIYAHRV [KLHL20], the protein stability index is, setting by setting: under setting [1], 2.67 ± 0.5; under setting [2], 2.3 ± 0.43.
On the same counts, the results for LRLENSSLFSQALKDEEAKVLQLT [CCDC89] are 3.6 ± 0.41 and 3.62 ± 0.61.
Take LRPQVVTDDDGQAPEAKDGSSFSG [APMAP]: the protein stability index runs as follows: under setting [1], 5.22 ± 0.26; under setting [2], 5.31 ± 0.15.
On the same counts, the results for LRSARGSRGGTRGWLPSHEGHLDD [RBMY1A1] are 4.7 ± 0.35 and 4.78 ± 0.17.
Taken in the same sequence, the figures for LSASQKALKEKEKASWSSLSMDEK [COX4I1] were 4.61 ± 0.28 and 4.84 ± 0.22.
Regarding LSCLGQQQQEPPLAMGTVSLGQLP [PLAGL1], the protein stability index is, setting by setting: under setting [1], 3.75 ± 0.32; under setting [2], 3.59 ± 0.5.
Taken in the same sequence, the figures for LSDLEDLEEEEEEEEEAEDEEVVA [IRX6] were 5.63 ± 0.23 and 5.81 ± 0.077.
On the same counts, the results for LSLESSPDAPDHTSETSHSPLYAD [PLEKHN1] are 5.47 ± 0.16 and 5.38 ± 0.24.
On the same counts, the results for LSSVPSEAQISDPFAPEPTPPTTT [SNAP91] are 5.38 ± 0.079 and 5.3 ± 0.2.
As to LSTIEELIKDAIVSTQPAMMVNLR [C2CD2L], the protein stability index runs as follows: under setting [1], 2.2 ± 0.29; under setting [2], 2.35 ± 0.17.
On the same counts, the results for LSTLAGIRVMVHGRNHTPFLGHHS [SCNN1D] are 2.69 ± 0.28 and 2.64 ± 0.23.
Taken in the same sequence, the figures for LTASGDGTCALWDVESGQLLQSFH [GNB5] were 2.67 ± 0.36 and 2.76 ± 0.24.
Turning to LTASRQSFRMAMGNPSEFFVDVM [DVL3], the protein stability index came out at 2.41 ± 0.65 (treatment: DMSO, c terminus: native) and 2.54 ± 0.85 (treatment: MLN4924 1 uM, 8 h, c terminus: native).
Regarding LTCDALTELLAKITNTDVDCLKAC [CCND2], the protein stability index runs as follows: under setting [1], 2.37 ± 0.28; under setting [2], 2.34 ± 0.27.
Turning to LTDAVAPGNKGRGQRGNTESKTDG [TCF25], the protein stability index reads like this: under setting [1], 5.5 ± 0.27; under setting [2], 5.48 ± 0.45.
Taken in the same sequence, the figures for LTDAYGPPSNFLEIDIFNPQTVGV [SNX12] were 2.87 ± 0.39 and 3.19 ± 0.39.
Taken in the same sequence, the figures for LTEHQRIHTGIKPHQCSECGRAFS [ZNF649] were 3.58 ± 0.064 and 3.69 ± 0.38.
Turning to LTFHRHPVAQSTDGIRGKVGHARG [SPSB4], the protein stability index reads like this: under setting [1], 3.99 ± 0.32; under setting [2], 3.97 ± 0.26.
Taken in the same sequence, the figures for LTVLQRLDVWLSGGNDLCVWNRKL [WDR41] were 2.17 ± 1 and 2.39 ± 0.32.
On to LVALAEQHAVQELTKAATSGVGID [RHOBTB1], for which the protein stability index by setting is: under setting [1], 4.08 ± 0.29; under setting [2], 4.18 ± 0.19.
Consider LVEDMVSQEEAQGLPSSELDAVEN [ZNF24], for which the protein stability index under setting [1] turned out to be 5.5 ± 0.48 and the protein stability index under setting [2] stood at 5.43 ± 0.15.
As for LVGDDAACIAYIRLTQYMDGSGMP [CAMK2D], the protein stability index reads like this: under setting [1], 2.13 ± 0.91; under setting [2], 1.66 ± 0.13.
On the same counts, the results for LVKHKRIHSREKRGDSVKVENPST [ZNF649] are 4.41 ± 0.32 and 4.54 ± 0.48.
As for LVTIARKASLWQFLSSEKQICGTH [TRIM43], the protein stability index came out at 2.06 ± 0.34 under setting [1] and 2.17 ± 0.45 under setting [2].
For LVTQQLPHLMPSNCGLEEKIANLG [S100A14], the protein stability index worked out at 2.43 ± 0.68 under setting [1] and 3.05 ± 0.55 under setting [2].
On the same counts, the results for LVVALDVDATLEHVQDPQNTVKVQ [INTS4] are 3.03 ± 0.14 and 3.21 ± 0.2.
Taken in the same sequence, the figures for LWDRAYVRLKPALQRLDFSVRGYM [RETREG3] were 2.5 ± 0.43 and 2.69 ± 0.65.
On the same counts, the results for LWRYRTITFSGRPSRVHASEVESA [FBXO39] are 2.79 ± 0.27 and 3 ± 0.33.
With LWVQGDIFRSKLKNRPSSEGSINK [CDC14A], the protein stability index by setting is: under setting [1], 2.62 ± 0.19; under setting [2], 2.92 ± 0.62.
Taken in the same sequence, the figures for LYAKMIQKLADLRSLNEEHSKQYR [VDR] were 2.15 ± 0.41 and 2.19 ± 0.22.
On the same counts, the results for LYGFLLTFGFITMTPQLFINYKLK [CLPTM1] are 3.12 ± 0.64 and 3.44 ± 0.32.
Taken in the same sequence, the figures for LYLIMEFLPGGDMMTLLMKKDTLT [STK38L] were 3.03 ± 0.13 and 2.94 ± 0.81.
Consider LYVSGLPKTMSQKEMEQLFSQYGR [ELAVL3], for which the protein stability index by setting is: under setting [1], 2.55 ± 0.14; under setting [2], 2.66 ± 0.39.
Taken in the same sequence, the figures for LYYSNFVLALEERFGVRPKVTGYL [MFSD9] were 2.76 ± 0.86 and 2.91 ± 0.79.
As for MAEESSCTRDCMSFSVLNWDQVSR [TENT5C], the protein stability index by setting is: under setting [1], 2.71 ± 0.29; under setting [2], 2.99 ± 0.22.
Taken in the same sequence, the figures for MALTPVVVTLWYRAPEVLLQSTYA [CDK4] were 3.04 ± 0.41 and 3.06 ± 0.45.
Taken in the same sequence, the figures for MASSAAGCVVIVGSGVIGRSWAML [CRYL1] were 3.7 ± 0.13 and 2.89 ± 1.8.
Taken in the same sequence, the figures for MAVRLAGGLQKMVALLNKTNVKFL [CTNNB1] were 2.871 ± 0.006 and 2.63 ± 0.76.
For MDIESLSVFTEPNRHFYREMQSFS [FBXO33], the protein stability index runs as follows: under setting [1], 2.39 ± 0.33; under setting [2], 2.3 ± 0.24.
On the same counts, the results for MEEDIDTRKINNSFLRDHSYATEA [PPP2R2B] are 4.77 ± 0.19 and 4.72 ± 0.12.
